In this test the target is FITC-Skp2^77−86 peptide (human) (UniProt Q13309). As to the kind of experiment: fluorescence polarisation.
FITC-Skp2^77−86 peptide (human), sequence (Q13309 whole entry, looked up, tested part not stated): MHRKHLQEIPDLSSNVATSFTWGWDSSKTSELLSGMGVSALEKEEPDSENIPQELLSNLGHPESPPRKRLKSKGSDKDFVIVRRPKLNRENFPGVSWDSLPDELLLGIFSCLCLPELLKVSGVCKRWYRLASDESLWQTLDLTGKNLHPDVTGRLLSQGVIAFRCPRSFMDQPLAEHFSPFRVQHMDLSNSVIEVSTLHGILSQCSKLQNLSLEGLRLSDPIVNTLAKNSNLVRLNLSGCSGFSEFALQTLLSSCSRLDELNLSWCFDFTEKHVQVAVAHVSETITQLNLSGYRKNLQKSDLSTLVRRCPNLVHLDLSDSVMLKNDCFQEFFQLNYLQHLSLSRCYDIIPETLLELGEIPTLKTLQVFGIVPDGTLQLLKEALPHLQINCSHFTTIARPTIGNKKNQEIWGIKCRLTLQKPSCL

“CDK2-cyclin A M210A/I213A (from UniProt P24941 1-298; P20248 173-432) (complex)” yielded a fold reduction of binding affinity against wild type of 5 fold.

The record behind these values is PMC8419023.
